From US20120165244A1, “METHODS FOR BINDING LEWIS Y ANTIGEN” (priority 2008, published 2012)

Key:
K. pneumoniae [1] = assay: K. pneumoniae clearance in circulation (viable CFU counts in blood); format: in vivo, male FVB mice
Description: (§1) Male FVB mice (8-10 weeks old) were used to model sepsis in vivo. The Institutional Animal Care and Use Committee of the National Cheng Kung University approved procedures. In the chronic endotoxemia model, various concentrations of rTMD1 or rTMD proteins in equi-molar amounts were administrated by tail intravenous (i.v.) injection and LPS (20 mg/kg) or K. pneumoniae (5×10^2 CFU/mouse, BCRC) was administrated by intraperitoneal (i.p.) injection. After 6 or 12 hours, mice were sacrificed by pentobarbital anesthesia (50 mg/kg; i.p.). […] The half-life of rTMD1 in the circulation was determined by i.v. injection of rTMD1 (10 mg/kg, equals 436.64 nmole/kg) and serum samples were collected at various time intervals. The levels of rTMD1 in the collected sera were determined by a sandwich ELISA which employed anti-c-Myc monoclonal antibody and TM-H300 as capture and detection antibodies (both from Santa Cruz Biotechnology), respectively. […] Mortality was monitored every 6-12 hours until all mice in either experimental group died. […] Serum samples were collected at various time intervals and the amount of LPS was determined by Limulus amebocyte lysate test (Associates of Cape Cod, E. Falmouth, Mass.). […] Outgrowth of K. pneumoniae was quantified by plating serial dilutions of blood samples on blood agar plates and enumerating colonies after overnight incubation at 37° C.

[2] = Lethal sepsis model (LPS 40 mg/kg i.p.), survival; format: in vivo, Male FVB mice; details: four i.v. doses of 2 mg/kg
Description: as §1

[3] = Clearance of LPS in circulation (Limulus amebocyte lysate test); format: in vivo; details: LPS 20 mg/kg i.p.; rTMD1 10 mg/kg i.v.
Description: as §1

E. coli DH5α = assay: Bacterial agglutination, FITC-labeled E. coli DH5α; details: 20 μg/mL protein, 5 mM CaCl2
Description: (§2) K. pneumoniae and E. coli DH5α (BCRC) were washed twice in 0.1 M sodium bicarbonate buffer (pH 9.6) and incubated with 0.1 mg/mL fluorescein isothiocyanate (FITC) at 37° C. in the dark. Each of 20 μg/mL of rTMD1, non-tagged rTMD1, mammalian rTMD1, and recombinant TM domains 2 and 3 (rTMD23) was co-incubated with FITC-labeled bacteria (1×10^5CFU/mL) in buffer (20 mM Tris, pH 7.4, 0.15 M NaCl, 5 mM CaCl2, 1 mg/mL BSA) with or without 0.2 M mannose or 5 mM EDTA. Samples were individually placed on a glass slide and fluorescently-labeled bacteria were observed microscopically to evaluate agglutination.

K. pneumoniae [4] = assay: Lethal bacteremia model (K. pneumoniae 5×10^3 CFU/mouse), survival; format: in vivo, Male FVB mice; details: single i.v. dose 10 mg/kg; K. pneumoniae 5×10^3 CFU
Description: as §1

K. pneumoniae [5] = assay: Bacterial agglutination, FITC-labeled K. pneumoniae; details: 20 μg/mL protein, 5 mM CaCl2
Description: as §2

[6] = Half-life of rTMD1 in the circulation (sandwich ELISA); format: in vivo, Male FVB mice; details: mice
Description: as §1

K. pneumoniae [7] = assay: K. pneumoniae binding assay (coated wells); details: FIG. 4A
Description: K. pneumoniae (3×10^5 CFU/well), E. coli O111:B4 smooth-type LPS (5 μg/well), or bovine serum albumin (BSA, 5 μg/well) in 100 μL of bicarbonate buffer (pH 9.6) were coated onto wells of high-binding microtiter plate (Corning Costar, Cambridge, Mass.). Nonspecific binding was blocked with binding buffer (20 mM Tris-HCl, pH 7.4, 0.15 M NaCl, 5 mM CaCl2) containing 50 mg/mL BSA. Various concentrations of rTMD proteins without or with CD14 (10 μg/mL; R&D Systems) in binding buffer containing 1 mg/mL BSA were added to wells and incubated for 2 hours. In some experiments, 0.2 M mannose, 5 mM EDTA, or Le^y were included in the binding buffer to compete with LPS and rTMD1 binding. Antibody against the c-Myc epitope of the rTMD proteins was added to wells and incubated for 2 hours, and peroxidase-labeled secondary antibody followed. Binding of rTMD proteins was detected by measuring absorbance at 450 nm.

B1: rTMD1: recombinant human thrombomodulin N-terminal lectin-like domain (residues Ala1-Ala155) with 6×His tag and c-Myc epitope, Pichia pastoris expressed (protein)
chain: EFAPAEPQPGGSQCVEHDCFALYPGPATFLNASQICDGLRGHLMTVRSSVAADVISLLLNGDGGVGRRRLWIGLQLPPGCGDPKRLGPLRGFQWVTGDNNTSYSRWARLDLNGAPLCGPLCVAVSAAEATVPSEPIWEEQQCEVKADGFLCEFHFPAYLEDDDDKIEQKLISEEDLNSAVDHHHHHH
modifications: left off: small tags and cut ends
K. pneumoniae clearance in circulation, post-treatment (K. pneumoniae [1]; 12, 24, 36 hours after infection, rTMD1 given up to 30 or 60 minutes after infection): enhance
K. pneumoniae clearance in circulation (K. pneumoniae [1]; 12, 24, and 36 hours after injection, rTMD1 10 mg/kg i.v., 5×10^2 CFU): significantly enhanced
survival ([2]; 1 day after LPS challenge): 100%
survival ([2]; 4 days after LPS challenge): 60%
LPS clearance [3]: significantly enhanced
agglutination of E. coli DH5α (E. coli DH5α): induced marked agglutination
mice surviving more than 24 hours (K. pneumoniae [4]): 50%
agglutination of K. pneumoniae (K. pneumoniae [5]): induced marked agglutination
time detectable after each i.v. injection ([6]; i.v.): ≤ 12 h
half-life in circulation ([6]; i.v. 10 mg/kg): 3 to 4 h
binding to K. pneumoniae (K. pneumoniae [7]): specifically bind
